No end group written: not given here.
Key:
Assay in all cases: Kinase Profiling Assay
Assay type in all cases: biochemical
Settings in all cases: peptide 100 μM
DYRK2(h) = molecular target: T1, DYRK2(h) (Homo sapiens, UniProt Q92630)
T1 sequence (Q92630 1-601): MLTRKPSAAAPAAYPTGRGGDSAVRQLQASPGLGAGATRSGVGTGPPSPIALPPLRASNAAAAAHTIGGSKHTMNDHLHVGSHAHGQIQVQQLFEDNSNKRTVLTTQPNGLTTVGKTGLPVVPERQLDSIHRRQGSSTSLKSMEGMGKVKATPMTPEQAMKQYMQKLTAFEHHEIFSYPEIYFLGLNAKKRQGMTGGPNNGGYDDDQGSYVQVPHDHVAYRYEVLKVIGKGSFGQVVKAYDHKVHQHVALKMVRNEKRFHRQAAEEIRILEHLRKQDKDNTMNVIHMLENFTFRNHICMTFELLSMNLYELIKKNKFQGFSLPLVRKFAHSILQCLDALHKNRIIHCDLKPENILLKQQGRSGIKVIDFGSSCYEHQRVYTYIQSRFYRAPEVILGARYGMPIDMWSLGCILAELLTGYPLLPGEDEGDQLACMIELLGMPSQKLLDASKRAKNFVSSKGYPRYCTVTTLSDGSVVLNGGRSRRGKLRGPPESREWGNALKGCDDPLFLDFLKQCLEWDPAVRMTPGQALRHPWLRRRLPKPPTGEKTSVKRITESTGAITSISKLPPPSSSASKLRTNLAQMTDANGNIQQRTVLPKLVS
Outline: (§1)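 Specificity of MK2 inhibitory peptides is assessed against a panel of 266 human kinases. Kinase transfers a radiolabeled phosphate from ATP onto a positively charged substrate, which is trapped on a negatively charged filter and quantified by scintillation counting against full-activity control; duplicate determinations.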

EphA4(h) = EphA4(h) (Homo sapiens, UniProt P54764)
Outline: as §1

IRAK1(h) = molecular target: T2, IRAK1(h) (Homo sapiens, UniProt P51617)
T2 construct: purchased Millipore
Outline: as §1

MELK(h) = molecular target: T3, MELK(h) (Homo sapiens, UniProt Q14680)
T3 construct: purchased Millipore
Outline: as §1

NEK2(h) = molecular target: T4, NEK2(h) (Homo sapiens, UniProt P51955)
T4 construct: purchased Millipore
T4 sequence (P51955 1-445): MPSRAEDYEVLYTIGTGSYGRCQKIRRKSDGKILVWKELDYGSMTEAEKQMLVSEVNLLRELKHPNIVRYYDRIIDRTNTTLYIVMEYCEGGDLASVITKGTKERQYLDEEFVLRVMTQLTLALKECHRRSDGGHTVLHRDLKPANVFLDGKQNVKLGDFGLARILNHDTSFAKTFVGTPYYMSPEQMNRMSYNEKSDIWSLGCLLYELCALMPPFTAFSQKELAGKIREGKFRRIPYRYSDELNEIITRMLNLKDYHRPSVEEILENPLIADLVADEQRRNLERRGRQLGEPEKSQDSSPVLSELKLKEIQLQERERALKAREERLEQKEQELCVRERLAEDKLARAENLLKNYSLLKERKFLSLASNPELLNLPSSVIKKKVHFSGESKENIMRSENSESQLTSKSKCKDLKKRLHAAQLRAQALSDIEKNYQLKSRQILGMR
Outline: as §1

NEK7(h) = molecular target: T5, NEK7(h) (Homo sapiens, UniProt Q8TDX7)
T5 construct: purchased Millipore
Outline: as §1

Tie2(Y897S)(h) = Tie2(Y897S)(h) (Homo sapiens, UniProt Q02763, Y897S)
Outline: as §1

MINK(h) = molecular target: T6, MINK(h) (Homo sapiens, UniProt Q8N4C8)
T6 construct: purchased Millipore
Outline: as §1

Snk(h) = molecular target: T7, Snk(h) (Homo sapiens, UniProt Q9NYY3)
T7 construct: purchased Millipore
Outline: as §1

CDK2/cyclinA(h) = CDK2/cyclinA(h) (Homo sapiens, UniProt P24941)
Outline: as §1

MEK1(h) = molecular target: T8, MEK1(h) (Homo sapiens, UniProt Q02750)
T8 construct: purchased Millipore
Outline: as §1

PKBγ(h) = PKBγ(h) (Homo sapiens, UniProt Q9Y243)
Outline: as §1

SAPK2a(h) = molecular target: T9, SAPK2a(h) (Homo sapiens, UniProt Q16539)
T9 construct: purchased Millipore
Outline: as §1

T2 sequence (P51617 whole entry): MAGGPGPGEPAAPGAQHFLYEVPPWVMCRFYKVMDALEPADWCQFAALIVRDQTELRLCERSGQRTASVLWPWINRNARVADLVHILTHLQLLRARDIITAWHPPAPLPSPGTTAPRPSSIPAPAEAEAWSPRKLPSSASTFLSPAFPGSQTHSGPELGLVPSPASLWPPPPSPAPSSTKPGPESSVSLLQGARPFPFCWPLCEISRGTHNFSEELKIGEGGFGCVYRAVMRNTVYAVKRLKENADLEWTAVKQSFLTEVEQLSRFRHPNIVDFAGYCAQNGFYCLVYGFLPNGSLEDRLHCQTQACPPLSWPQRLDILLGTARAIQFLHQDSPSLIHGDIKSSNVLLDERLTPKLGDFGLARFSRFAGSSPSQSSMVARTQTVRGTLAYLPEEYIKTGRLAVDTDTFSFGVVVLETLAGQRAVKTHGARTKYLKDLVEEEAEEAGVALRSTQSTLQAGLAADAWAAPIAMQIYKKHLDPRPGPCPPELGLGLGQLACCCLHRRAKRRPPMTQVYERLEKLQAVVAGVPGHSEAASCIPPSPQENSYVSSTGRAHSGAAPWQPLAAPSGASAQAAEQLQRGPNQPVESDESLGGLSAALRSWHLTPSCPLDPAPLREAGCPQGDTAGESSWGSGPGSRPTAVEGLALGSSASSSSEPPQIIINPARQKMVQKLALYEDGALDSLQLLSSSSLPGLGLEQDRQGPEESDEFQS
T5 sequence (Q8TDX7 whole entry): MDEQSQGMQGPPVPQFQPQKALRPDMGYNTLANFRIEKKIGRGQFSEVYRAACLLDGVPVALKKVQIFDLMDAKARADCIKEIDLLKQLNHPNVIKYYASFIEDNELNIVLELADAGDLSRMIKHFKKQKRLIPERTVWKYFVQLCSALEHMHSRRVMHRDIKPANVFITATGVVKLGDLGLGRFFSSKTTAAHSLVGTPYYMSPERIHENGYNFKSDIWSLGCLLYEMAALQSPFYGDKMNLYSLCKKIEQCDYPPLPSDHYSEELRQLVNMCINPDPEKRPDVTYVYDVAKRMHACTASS
T6 sequence (Q8N4C8 whole entry): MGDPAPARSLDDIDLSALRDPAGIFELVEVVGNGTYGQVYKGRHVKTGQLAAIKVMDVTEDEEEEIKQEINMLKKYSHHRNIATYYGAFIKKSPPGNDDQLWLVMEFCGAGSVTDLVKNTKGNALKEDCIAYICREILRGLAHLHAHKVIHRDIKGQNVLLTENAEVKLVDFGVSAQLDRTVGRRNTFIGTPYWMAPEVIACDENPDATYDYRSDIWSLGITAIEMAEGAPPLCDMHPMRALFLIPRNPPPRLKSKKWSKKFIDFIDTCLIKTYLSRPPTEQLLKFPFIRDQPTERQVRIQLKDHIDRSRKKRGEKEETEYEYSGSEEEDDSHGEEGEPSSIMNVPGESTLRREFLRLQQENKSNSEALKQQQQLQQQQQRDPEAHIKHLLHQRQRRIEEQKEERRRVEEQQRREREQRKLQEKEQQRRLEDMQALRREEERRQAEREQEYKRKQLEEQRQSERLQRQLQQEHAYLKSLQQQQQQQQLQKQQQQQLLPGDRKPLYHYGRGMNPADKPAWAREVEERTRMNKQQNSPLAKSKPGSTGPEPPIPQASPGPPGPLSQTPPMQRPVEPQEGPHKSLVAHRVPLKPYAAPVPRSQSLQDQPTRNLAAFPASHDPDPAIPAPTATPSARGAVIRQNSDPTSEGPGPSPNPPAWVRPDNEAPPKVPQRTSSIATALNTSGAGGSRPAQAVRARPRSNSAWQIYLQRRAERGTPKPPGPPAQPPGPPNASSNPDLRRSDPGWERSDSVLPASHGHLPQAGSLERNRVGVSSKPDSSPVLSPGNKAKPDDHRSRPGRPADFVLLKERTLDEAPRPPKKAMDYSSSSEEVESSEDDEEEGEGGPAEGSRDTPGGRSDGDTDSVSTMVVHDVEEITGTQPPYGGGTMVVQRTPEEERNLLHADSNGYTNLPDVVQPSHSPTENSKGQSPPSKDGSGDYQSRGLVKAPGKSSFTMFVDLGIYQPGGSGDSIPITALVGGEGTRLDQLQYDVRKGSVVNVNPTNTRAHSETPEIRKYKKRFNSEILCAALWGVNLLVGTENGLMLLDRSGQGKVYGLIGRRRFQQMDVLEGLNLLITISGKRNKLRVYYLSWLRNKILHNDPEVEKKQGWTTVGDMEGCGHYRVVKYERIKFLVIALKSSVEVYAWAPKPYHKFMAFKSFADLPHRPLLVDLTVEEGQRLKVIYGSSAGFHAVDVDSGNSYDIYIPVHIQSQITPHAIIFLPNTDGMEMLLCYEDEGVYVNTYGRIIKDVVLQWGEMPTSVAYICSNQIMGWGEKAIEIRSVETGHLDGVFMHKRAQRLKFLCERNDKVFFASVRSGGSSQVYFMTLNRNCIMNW
Chain of EphA4(h) (P54764 20-986): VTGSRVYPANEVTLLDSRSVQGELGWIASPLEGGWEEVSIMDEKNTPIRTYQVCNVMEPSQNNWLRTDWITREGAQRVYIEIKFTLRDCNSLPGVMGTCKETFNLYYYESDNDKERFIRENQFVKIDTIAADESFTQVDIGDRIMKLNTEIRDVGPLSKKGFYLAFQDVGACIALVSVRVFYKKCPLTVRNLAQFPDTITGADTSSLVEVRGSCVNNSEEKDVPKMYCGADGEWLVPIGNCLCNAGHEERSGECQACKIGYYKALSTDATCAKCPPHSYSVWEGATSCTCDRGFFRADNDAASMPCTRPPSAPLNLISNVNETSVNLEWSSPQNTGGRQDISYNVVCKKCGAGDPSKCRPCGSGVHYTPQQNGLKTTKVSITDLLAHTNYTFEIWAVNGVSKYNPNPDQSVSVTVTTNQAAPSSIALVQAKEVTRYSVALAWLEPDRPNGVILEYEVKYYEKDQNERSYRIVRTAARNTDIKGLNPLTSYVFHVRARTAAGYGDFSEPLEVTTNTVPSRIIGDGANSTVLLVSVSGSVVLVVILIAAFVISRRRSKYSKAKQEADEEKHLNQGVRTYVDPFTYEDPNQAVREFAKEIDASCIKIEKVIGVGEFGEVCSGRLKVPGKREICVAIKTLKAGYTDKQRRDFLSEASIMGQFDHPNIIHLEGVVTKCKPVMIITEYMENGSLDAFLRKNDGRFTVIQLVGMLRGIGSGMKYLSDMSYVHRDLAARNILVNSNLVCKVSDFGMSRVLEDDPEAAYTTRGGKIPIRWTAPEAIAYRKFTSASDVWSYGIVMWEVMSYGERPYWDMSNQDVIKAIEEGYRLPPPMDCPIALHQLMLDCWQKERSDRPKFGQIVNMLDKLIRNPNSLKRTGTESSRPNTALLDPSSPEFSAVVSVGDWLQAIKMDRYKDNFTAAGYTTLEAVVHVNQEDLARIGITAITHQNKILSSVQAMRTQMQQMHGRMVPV
T3 sequence (Q14680 whole entry): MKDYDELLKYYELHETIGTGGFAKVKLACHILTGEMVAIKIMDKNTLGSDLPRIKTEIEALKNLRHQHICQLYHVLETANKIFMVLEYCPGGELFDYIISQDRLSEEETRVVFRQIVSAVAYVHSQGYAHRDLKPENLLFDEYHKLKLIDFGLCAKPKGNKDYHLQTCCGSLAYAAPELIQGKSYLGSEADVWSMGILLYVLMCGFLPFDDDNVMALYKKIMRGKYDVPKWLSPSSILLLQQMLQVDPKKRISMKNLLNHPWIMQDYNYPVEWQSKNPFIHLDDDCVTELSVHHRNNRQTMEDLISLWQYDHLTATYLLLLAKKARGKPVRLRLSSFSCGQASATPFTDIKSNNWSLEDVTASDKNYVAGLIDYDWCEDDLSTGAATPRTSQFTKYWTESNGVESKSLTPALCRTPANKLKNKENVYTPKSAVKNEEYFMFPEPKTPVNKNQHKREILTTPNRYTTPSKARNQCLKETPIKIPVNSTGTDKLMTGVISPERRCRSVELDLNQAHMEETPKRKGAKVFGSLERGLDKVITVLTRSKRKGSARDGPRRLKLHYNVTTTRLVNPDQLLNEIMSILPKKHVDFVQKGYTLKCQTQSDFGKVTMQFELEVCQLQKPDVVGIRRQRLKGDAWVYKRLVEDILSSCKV
T7 sequence (Q9NYY3 whole entry): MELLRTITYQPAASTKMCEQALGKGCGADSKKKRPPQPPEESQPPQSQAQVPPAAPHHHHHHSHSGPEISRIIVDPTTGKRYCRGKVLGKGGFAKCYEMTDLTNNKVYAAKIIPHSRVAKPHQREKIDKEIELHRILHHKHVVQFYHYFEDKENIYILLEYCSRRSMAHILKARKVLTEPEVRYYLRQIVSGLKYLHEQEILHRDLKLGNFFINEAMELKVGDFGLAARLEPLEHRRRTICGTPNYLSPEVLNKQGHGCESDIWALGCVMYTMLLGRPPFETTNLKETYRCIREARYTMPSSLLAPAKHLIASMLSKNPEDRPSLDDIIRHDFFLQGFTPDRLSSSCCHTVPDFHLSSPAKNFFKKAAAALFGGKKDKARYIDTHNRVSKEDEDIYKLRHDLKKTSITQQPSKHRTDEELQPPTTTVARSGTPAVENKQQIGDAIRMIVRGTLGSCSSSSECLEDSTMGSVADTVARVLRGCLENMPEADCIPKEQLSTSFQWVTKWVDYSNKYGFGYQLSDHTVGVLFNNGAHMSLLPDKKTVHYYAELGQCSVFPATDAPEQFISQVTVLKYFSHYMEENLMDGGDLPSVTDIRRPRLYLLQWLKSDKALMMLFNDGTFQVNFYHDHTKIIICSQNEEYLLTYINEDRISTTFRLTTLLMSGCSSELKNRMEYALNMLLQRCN
T9 sequence (Q16539 whole entry): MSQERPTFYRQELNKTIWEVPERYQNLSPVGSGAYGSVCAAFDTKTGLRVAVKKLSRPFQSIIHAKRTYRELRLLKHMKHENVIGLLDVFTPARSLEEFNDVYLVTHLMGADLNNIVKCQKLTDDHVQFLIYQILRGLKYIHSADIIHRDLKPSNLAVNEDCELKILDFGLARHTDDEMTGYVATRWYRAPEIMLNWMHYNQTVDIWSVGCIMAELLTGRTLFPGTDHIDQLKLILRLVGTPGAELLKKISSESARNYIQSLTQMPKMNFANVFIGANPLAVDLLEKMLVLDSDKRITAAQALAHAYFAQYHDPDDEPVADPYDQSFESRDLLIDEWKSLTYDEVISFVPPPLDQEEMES

Sequence	% activity (DYRK2(h))	% activity (EphA4(h))	% activity (IRAK1(h))	% activity (MELK(h))	% activity (NEK2(h))	% activity (NEK7(h))	% activity (Tie2(Y897S)(h))	% activity (MINK(h))	% activity (Snk(h))	% activity (CDK2/cyclinA(h))	% activity (MEK1(h))	% activity (PKBγ(h))	% activity (SAPK2a(h))
YARAAARQARAKALNRQLGVA (Mammal) [MMI-0200]	142%	127%	101%	59%	97%	96%	85%	–	–	–	–	–	–
YARAAARQARAKALARQLGVAA [MMI-0100]	–	110%	–	74%	–	–	99%	96%	94%	–	–	–	–
HRRIKAWLKKIKALARQLGVAA (Mammal) [MMI-0500]	127%	48%	5%	0%	0%	89%	80%	5%	122%	87%	21%	20%	52%
KAFAKLAARLYRKALARQLGVAA [MMI-0400]	195%	65%	93%	17%	61%	87%	87%	52%	131%	92%	77%	41%	85%
FAKLAARLYRKALARQLGVAA [MMI-0300]	155%	88%	95%	16%	78%	84%	83%	48%	–	86%	77%	20%	90%

From US20150258192A1, “COMPOSITIONS AND METHODS FOR PREVENTING OR TREATING CHRONIC LUNG ALLOGRAFT DYSFUNCTION (CLAD) AND IDIOPATHIC PULMONARY FIBROSIS (IPF)” (priority 2014, published 2015)
